{"source": "paper PMC4828840", "about": "“Structural insight into the cooperation of chloroplast chaperonin subunits” (BMC Biology, 2016)", "molecules": {"B1": {"name": "GroES (natural protein, E. coli, UniProt P0A6F9 1-97, looked up)", "chain": "MNIRPLHDRVIVKRKEVETKSAGGIVLTGSAAAKSTRGEVLAVGNGRILENGEVKPLDVKVGDIVIFNDGYGVKSEKIDNEEVLIMSESDILAIVEA", "notes": "GroES, co-chaperonin of E. coli; Purification of proteins is in Additional file 1"}}, "key": {"[1]": {"molecular_target": "CPN60β1 homo-oligomer (Chlamydomonas reinhardtii)", "assay": "crystal structure; apo CPN60β1 homo-oligomer, 3.8 Å, space group P21, molecular replacement with apo GroEL"}, "[2]": {"molecular_target": "CPN60β1 homo-oligomer (Chlamydomonas reinhardtii)"}, "GroEL": {"molecular_target": "T1, GroEL (E. coli, UniProt P0A6F5 1-548)", "T1 construct": "GroEL, group I chaperonin of E. coli; Purification of proteins is in Additional file 1; copies: 14", "assay": "SEC; gel filtration, Superdex 200; 2 μM chaperonin and 10 μM GroES; buffer with 50 μM AMP-PNP; fractions on SDS-PAGE, Coomassie", "details": "both partners purified"}}}
{"molecule": "CPN60β1 homo-oligomer (natural protein)", "values": [{"measurement": "stoichiometry N", "setting": "[1]", "value": 14, "unit": "subunits"}]}
{"molecule": "mitochondrial co-chaperonin Hsp10 from mouse (from UniProt Q64433 1-102) (natural protein)", "values": [{"measurement": "inhibition of the ATPase activity of CPN60β1 (0.2 μM chaperonin, 0.4 μM co-chaperonin, 25 °C)", "setting": "[2]", "value": 50, "unit": "%"}]}
{"molecule": "B1", "values": [{"measurement": "binding result", "setting": "GroEL", "value": "binds"}]}
